Read-outs that look alike come from different tables or passages of the source.

Consider eight molecules from PMC4211667, “Cell Fate Regulation Governed by a Repurposed Bacterial Histidine Kinase” (PLoS Biology, 2014).

For series [1], the target named is BODIPY-DivK (unphosphorylated DivK response regulator) (Caulobacter crescentus). Put plainly: fluorescence polarisation; 250 nM BODIPY-DivK or BODIPY-DivK∼P with varying kinase concentrations (DivL 0–120 µM), 45 min to equilibrium; DivK∼P made with 250 nM DivJ, 1 mM ATP, 5 mM MgCl2; unphosphorylated DivK with 1 mM AMP-PNP, 5 mM MgCl2; apparent Kd. A general note: In fluorescence polarisation assays a small probe gives low polarisation when free and higher when bound to something large.

The target of series [2] is BODIPY-DivK∼P (phosphorylated DivK response regulator) (Caulobacter crescentus). The description is as above.
Series [3] deals with the molecule itself. Put plainly: SEC; gel filtration of the purified DivL point mutants; conditions not given.
Series [4] deals with BODIPY-DivK∼P (phosphorylated DivK response regulator). Put plainly: fluorescence polarization binding assay. As to conditions: parent: est. 36; read off a plot.
The target of series [5] is BODIPY-DivK (unphosphorylated DivK response regulator). Put plainly: fluorescence polarization binding assay. As to conditions: parent: est. 2.0; read off a plot.
Series [6] deals with BODIPY-DivK∼P (phosphorylated DivK response regulator) (Caulobacter crescentus). As to the kind of experiment: fluorescence polarisation; 250 nM BODIPY-DivK or BODIPY-DivK∼P with varying kinase concentrations (DivL 0–120 µM), 45 min to equilibrium; DivK∼P made with 250 nM DivJ, 1 mM ATP, 5 mM MgCl2; unphosphorylated DivK with 1 mM AMP-PNP, 5 mM MgCl2; apparent Kd. This is another data set of the same source.

In series [7] the target is BODIPY-DivK (unphosphorylated DivK response regulator) (Caulobacter crescentus). The description is as above. The source holds these as a separate data set.

B1: DivJ histidine kinase, Q03228 1-597 (enzyme)
chain: RDDRYASEIIGLETLLDGLPHLAIAVRGQGQVTAVRGAAPPGVTRADLVNRGLTGAAAPGDRQRLTAAIAQAHREGSASLTFNPALGVERVVALDMHRVAPNQLVGVLRDITVERHREHALDQARIDAEALAAGRARFLANMSHELRTPLNAIMGFSDIMRARMFGPLSDRYAEYAELIHESGGHLLDLINDVLDMSKIEAERFELQRGVFDAREAVQAAMRLLRVQSDTAGVQLRGVLPPGELEVDADRRALKQIVLNLVSNALKFTPRGGQVTVTAHGYDGVLEIVVADTGVGISPEDLERLGRPYEQAGGAEQRARGTGLGLSLVRAFAQLHGGEMVIESRLGAGTTVSVRLPVLLAPMVAATPTPPAAPEAPSAPEPAPTVEEPPPASLGDNVIAFAPR
modifications: not checked
For B1, the Kd in series [1] amounted to 8 µM; in series [2] it was 16 µM.

B2: PleC histidine kinase/phosphatase, P37894 1-842 (enzyme)
chain: VAHREFIDSERRFRLAVEAARCGIWEWDLNGDQVYLSDVTGAMFGWGGGGVVSGQDLLERISIDHRERVRQALANAAMYGAFDVSFRVPASEQGARSLWIDARGQGFGKPGSEGHARIIGVALDVTEERIAQARAQAAENRLRDAIESVSEAFVLWDRQGRLLMCNRNYRSVFSLEPKILKPGAARAEVNRFAALAIKQDHPAPDGAKGVREAEMMDGRWIQISERRTAEGGLVMTAADITAIKTQEEARRRNEEQLQNAVAGLERSQEQLAELARKYETEKVKAESANKAKSEFLANMSHELRTPLNAINGFSEIMMNEMFGPLGDQRYKGYSQDIHSSGQHLLALINDILDMSKIEAGKMNLKFESMHLEDVAEDAVRLVRNRAEAAGLKLDIDFPQLPEIEADYRAVKQVLLNLLSNAIKFTPRAGSVTVRAEVRRDPFGDLIKVSVTDTGIGIAKEDLARLAKPFEQVESQFSKTTQGTGLGLALTKSLITMHDGVLEMHSTPGEGTTVSFTLPVRHSDQKITRDFVAA
modifications: not checked
For B2, the Kd in series [1] stood at 26 µM; in series [2], 2.4 µM.

B3: DivL(152–769) Y562A (domain or fragment, Caulobacter crescentus, UniProt Q9RQQ9 152-769, looked up)
chain: RADSGLPTAARFAAFVDSVVEPCWIAGADGQAIWGNAAFVRAVGAASAQAPALAGKSFDRGADAVVVEAAGKGERREALRWINVEGRRRAFRLSAQPLDGGGVGVFCADVTEIEDVRDAFKKHVEAHDETLNHIAEAVAIFSQTRRLSYHNTAFAELWGLEPAWLADRPTHGEVLDRLRQRRRLPETIDYAGWKAAELARYEDLGPQADDLWDLPDGRTLKVVRQPHPLGGMLLIYSDITGELRLKAQYNALIQVQQATLDKLNDAVAVFGSDGRLRLHNEAFETFWNVTPHALEAAGDFEGVVELCVPRLHDLSFWRELKGRVADPDPQMRAPTSGEVRTSDSRIVLYQSRPLPDGATLIAFADVTDTRDLQSALADRSAALAEAERLKRDFVGNVSYELRTPLTTIIGASELLERADGISERGRNHVAAVRAAATQLARSIDDVLDMAQIDAGEMALEIEDIRVSDLLLNAQERALKDAQLGGVTLAVECEEDVGLIRGDGKRLAQTLDHLVENALRQTPPGGRVTLSARRALGEVRLDVSDTGRGVPFHVQAHIFDRFVGRDRGGPGLGLALVKALVELHGGWVALESEPGNGSTFTCHLPETQQPGAMQPELGF
notes: DivL pseudo-histidine kinase, Caulobacter crescentus, residues 152-769; source: E. coli Rosetta (DE3) pLysS, purified (Ni-NTA, gel filtration)
The stoichiometry N is the number of molecules, sites or subunits per partner or assembly. As for B3, the “stoichiometry N” value in series [3] was 2. In addition, the response was determined as 3.2 AU in series [4] and 2.9 AU in series [5].

B4: DivL(152–769) R553A (domain or fragment, Caulobacter crescentus, UniProt Q9RQQ9 152-769, looked up)
chain: RADSGLPTAARFAAFVDSVVEPCWIAGADGQAIWGNAAFVRAVGAASAQAPALAGKSFDRGADAVVVEAAGKGERREALRWINVEGRRRAFRLSAQPLDGGGVGVFCADVTEIEDVRDAFKKHVEAHDETLNHIAEAVAIFSQTRRLSYHNTAFAELWGLEPAWLADRPTHGEVLDRLRQRRRLPETIDYAGWKAAELARYEDLGPQADDLWDLPDGRTLKVVRQPHPLGGMLLIYSDITGELRLKAQYNALIQVQQATLDKLNDAVAVFGSDGRLRLHNEAFETFWNVTPHALEAAGDFEGVVELCVPRLHDLSFWRELKGRVADPDPQMRAPTSGEVRTSDSRIVLYQSRPLPDGATLIAFADVTDTRDLQSALADRSAALAEAERLKRDFVGNVSYELATPLTTIIGYSELLERADGISERGRNHVAAVRAAATQLARSIDDVLDMAQIDAGEMALEIEDIRVSDLLLNAQERALKDAQLGGVTLAVECEEDVGLIRGDGKRLAQTLDHLVENALRQTPPGGRVTLSARRALGEVRLDVSDTGRGVPFHVQAHIFDRFVGRDRGGPGLGLALVKALVELHGGWVALESEPGNGSTFTCHLPETQQPGAMQPELGF
notes: as for B3
For B4, the “stoichiometry N” value in series [3] was determined as 2. In addition, the response in series [4] is 3.2 AU; in series [5], 2.3 AU.

B5: DivL(152–769) T557N (domain or fragment, Caulobacter crescentus, UniProt Q9RQQ9 152-769, looked up)
chain: RADSGLPTAARFAAFVDSVVEPCWIAGADGQAIWGNAAFVRAVGAASAQAPALAGKSFDRGADAVVVEAAGKGERREALRWINVEGRRRAFRLSAQPLDGGGVGVFCADVTEIEDVRDAFKKHVEAHDETLNHIAEAVAIFSQTRRLSYHNTAFAELWGLEPAWLADRPTHGEVLDRLRQRRRLPETIDYAGWKAAELARYEDLGPQADDLWDLPDGRTLKVVRQPHPLGGMLLIYSDITGELRLKAQYNALIQVQQATLDKLNDAVAVFGSDGRLRLHNEAFETFWNVTPHALEAAGDFEGVVELCVPRLHDLSFWRELKGRVADPDPQMRAPTSGEVRTSDSRIVLYQSRPLPDGATLIAFADVTDTRDLQSALADRSAALAEAERLKRDFVGNVSYELRTPLNTIIGYSELLERADGISERGRNHVAAVRAAATQLARSIDDVLDMAQIDAGEMALEIEDIRVSDLLLNAQERALKDAQLGGVTLAVECEEDVGLIRGDGKRLAQTLDHLVENALRQTPPGGRVTLSARRALGEVRLDVSDTGRGVPFHVQAHIFDRFVGRDRGGPGLGLALVKALVELHGGWVALESEPGNGSTFTCHLPETQQPGAMQPELGF
notes: as for B3
With B5, the “stoichiometry N” value in series [3] worked out at 2. Moreover, the response in series [4] was found to be 2.6 AU.

B6: DivL(152–769) (domain or fragment)
chain: RADSGLPTAARFAAFVDSVVEPCWIAGADGQAIWGNAAFVRAVGAASAQAPALAGKSFDRGADAVVVEAAGKGERREALRWINVEGRRRAFRLSAQPLDGGGVGVFCADVTEIEDVRDAFKKHVEAHDETLNHIAEAVAIFSQTRRLSYHNTAFAELWGLEPAWLADRPTHGEVLDRLRQRRRLPETIDYAGWKAAELARYEDLGPQADDLWDLPDGRTLKVVRQPHPLGGMLLIYSDITGELRLKAQYNALIQVQQATLDKLNDAVAVFGSDGRLRLHNEAFETFWNVTPHALEAAGDFEGVVELCVPRLHDLSFWRELKGRVADPDPQMRAPTSGEVRTSDSRIVLYQSRPLPDGATLIAFADVTDTRDLQSALADRSAALAEAERLKRDFVGNVSYELRTPLTTIIGYSELLERADGISERGRNHVAAVRAAATQLARSIDDVLDMAQIDAGEMALEIEDIRVSDLLLNAQERALKDAQLGGVTLAVECEEDVGLIRGDGKRLAQTLDHLVENALRQTPPGGRVTLSARRALGEVRLDVSDTGRGVPFHVQAHIFDRFVGRDRGGPGLGLALVKALVELHGGWVALESEPGNGSTFTCHLPETQQPGAMQPELGF
Consider B6, for which the Kd in series [6] is 11 µM; in series [7], more than 150 µM.

B7: DivL(152–769) Y550H (domain or fragment, Caulobacter crescentus, UniProt Q9RQQ9 152-769, looked up)
chain: RADSGLPTAARFAAFVDSVVEPCWIAGADGQAIWGNAAFVRAVGAASAQAPALAGKSFDRGADAVVVEAAGKGERREALRWINVEGRRRAFRLSAQPLDGGGVGVFCADVTEIEDVRDAFKKHVEAHDETLNHIAEAVAIFSQTRRLSYHNTAFAELWGLEPAWLADRPTHGEVLDRLRQRRRLPETIDYAGWKAAELARYEDLGPQADDLWDLPDGRTLKVVRQPHPLGGMLLIYSDITGELRLKAQYNALIQVQQATLDKLNDAVAVFGSDGRLRLHNEAFETFWNVTPHALEAAGDFEGVVELCVPRLHDLSFWRELKGRVADPDPQMRAPTSGEVRTSDSRIVLYQSRPLPDGATLIAFADVTDTRDLQSALADRSAALAEAERLKRDFVGNVSHELRTPLTTIIGYSELLERADGISERGRNHVAAVRAAATQLARSIDDVLDMAQIDAGEMALEIEDIRVSDLLLNAQERALKDAQLGGVTLAVECEEDVGLIRGDGKRLAQTLDHLVENALRQTPPGGRVTLSARRALGEVRLDVSDTGRGVPFHVQAHIFDRFVGRDRGGPGLGLALVKALVELHGGWVALESEPGNGSTFTCHLPETQQPGAMQPELGF
notes: DivL pseudo-histidine kinase, Caulobacter crescentus, residues 152-769; also called DivL Y550H; source: E. coli Rosetta (DE3) pLysS, purified (Ni-NTA, gel filtration)
With B7, the “stoichiometry N” value in series [3] amounted to 2. Moreover, the response in series [4] was found to be 35 AU; in series [5], 4 AU.

B8: DivL(152–769) H579E (domain or fragment, Caulobacter crescentus, UniProt Q9RQQ9 152-769, looked up)
chain: RADSGLPTAARFAAFVDSVVEPCWIAGADGQAIWGNAAFVRAVGAASAQAPALAGKSFDRGADAVVVEAAGKGERREALRWINVEGRRRAFRLSAQPLDGGGVGVFCADVTEIEDVRDAFKKHVEAHDETLNHIAEAVAIFSQTRRLSYHNTAFAELWGLEPAWLADRPTHGEVLDRLRQRRRLPETIDYAGWKAAELARYEDLGPQADDLWDLPDGRTLKVVRQPHPLGGMLLIYSDITGELRLKAQYNALIQVQQATLDKLNDAVAVFGSDGRLRLHNEAFETFWNVTPHALEAAGDFEGVVELCVPRLHDLSFWRELKGRVADPDPQMRAPTSGEVRTSDSRIVLYQSRPLPDGATLIAFADVTDTRDLQSALADRSAALAEAERLKRDFVGNVSYELRTPLTTIIGYSELLERADGISERGRNEVAAVRAAATQLARSIDDVLDMAQIDAGEMALEIEDIRVSDLLLNAQERALKDAQLGGVTLAVECEEDVGLIRGDGKRLAQTLDHLVENALRQTPPGGRVTLSARRALGEVRLDVSDTGRGVPFHVQAHIFDRFVGRDRGGPGLGLALVKALVELHGGWVALESEPGNGSTFTCHLPETQQPGAMQPELGF
notes: as for B3
In the case of B8, the “stoichiometry N” value in series [3] amounted to 2. Also, the response stood at 5.1 AU in series [4] and 4.2 AU in series [5].
